In experiment [1] the target is T1, recombinant mature myostatin (human, produced in E. coli) (human, UniProt O14793 267-375).
T1 sequence (looked up): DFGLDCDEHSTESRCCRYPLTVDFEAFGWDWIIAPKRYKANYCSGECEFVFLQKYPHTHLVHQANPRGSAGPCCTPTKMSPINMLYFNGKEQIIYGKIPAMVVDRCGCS
As to the kind of experiment: cell-based or functional assay.

The target in experiment [2] is T1, recombinant mature myostatin (human, …). As to the kind of experiment: cell-based or functional assay. This is another data set of the same source.

Where no end group is shown, it is not given here.

B1: TN8-19 peptide (peptide)
peptide: QGHCTRWPWMCPPY
modifications: also: cysteine-constrained, bridge type not given here
For B1, the “IC50 (read off the curve)” value in experiment [1] is roughly 20 µM.

B2: recombinant human activin receptor IIB/Fc chimera (R&D Systems) (Fc fusion, UniProt Q13705 19-134, looked up, not shown: a dimerising Fc or GST)
chain: SGRGEAETRECIYYNANWELERTNQSGLERCEGEQDKRLHCYASWRNSSGTIELVKKGCWLDDFNCYDRQECVATEENPQVYFCCCEGNFCNERFTHLPEAGGPEVTYEPPPTAPT
Take B2: the “IC50, C2C12 pMARE-luc assay” value in experiment [2] is roughly 83 nM.

The values are drawn from patent publication US20160038588A1 (Amgen, published 2016).
